Results on 16 molecules are retold here after US20230129258A1 (Bicycle, published 2023).

Starred links: 1 amine or outer side, 2 acyl side, 3 side chain; linkers in the order of their positions; H or OH if unused. Positions of bridges follow the written chain, without caps; N, C: chain ends. Non-standard residues stand in square brackets, D forms with d. Chains are numbered I, II in the order given. No end group written: not given here. *: point of attachment. TATA = O=C(CC[*:1])N1CN(C(=O)CC[*:2])CN(C(=O)CC[*:3])C1; Dip = N[C@H](C(=O)O)C(c1ccccc1)c1ccccc1; 1Nal = N[C@@H](Cc1cccc2ccccc12)C(=O)O; Hyp = O=C(O)[C@@H]1C[C@@H](O)CN1; hArg = N=C(N)NCCCC[C@H](N)C(=O)O; tBuAla = CC(C)(C)C[C@H](N)C(=O)O; Cba = N[C@@H](CC1CCC1)C(=O)O; dK(PYA) = not defined here; Nle = CCCC[C@H](N)C(=O)O; Pent4ynoyl = C#CCCC(=O)*; Mpa = O=C(O)CCS

Test [1] deals with T1, CD137 on Jurkat reporter cells (Promega kit CS196005) (UniProt Q07011 24-255, limits assumed). Nature of the test: cell-based or functional assay.
T1 sequence (Q07011 24-255 limits assumed): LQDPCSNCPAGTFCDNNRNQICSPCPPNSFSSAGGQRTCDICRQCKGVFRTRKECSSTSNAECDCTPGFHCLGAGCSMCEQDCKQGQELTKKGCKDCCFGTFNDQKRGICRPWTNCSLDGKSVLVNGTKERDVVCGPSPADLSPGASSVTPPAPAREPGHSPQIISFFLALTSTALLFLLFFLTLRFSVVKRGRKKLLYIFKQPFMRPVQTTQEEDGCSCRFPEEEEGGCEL
Test [2] addresses T1, CD137 on Jurkat reporter cells (Promega …). Nature of the test: cell-based or functional assay. This is another data set of the same source.

B1: BCY13341 (peptide)
peptide 1: C[Hyp][Cba]VNPLCL[Dip]P[dD]WTC[dA]
peptide 2: [Mpa][tBuAla]PE[dK(PYA)]PYCFADPY[Nle]C
modifications: linker I:1-I:8-I:15, II:1-II:8-II:15 via TATA; reading uncertain; also: linker at chain B 5 to a chain's N-terminus via N-(acid-PEG3)-N-bis(PEG3-azide)
As to B1, in test [1], the “EC50 (nM), PC3 co-culture” value was 0.19 nM and the “Emax (fold induction over background), PC3” value was found to be 49.1 fold over background.

B2: BCY13048 (peptide)
peptide 1: C[Hyp]LVNPLCL[Dip]P[dD]WTC
peptide 2: Ac-C[tBuAla]PE[dK](Pent4ynoyl)PYCFADPY[Nle]CA
modifications: linker I:1-I:8-I:15 via TATA; linker II:1-II:8-II:15 via TATA (inferred); not fully specified (N-terminus, bridges); also: 1:2 complex: two copies of chain 2 (BCY8928) on the branched linker
Turning to B2, in test [1], the “EC50 (nM), PC3 co-culture” value is 0.09 nM and the “Emax (fold induction over background), PC3” value worked out at 48.4 fold over background.

B3: BCY13274 (peptide)
peptide 1: Ac-C[Hyp]LVNPLCL[Dip]P[dD]WTC[dK]
peptide 2: Ac-C[tBuAla]PE[dK](Pent4ynoyl)PYCFADPY[Nle]CA
modifications: linker I:1-I:8-I:15 via TATA; linker II:1-II:8-II:15 via TATA (inferred); not fully specified (bridges); also: linker N-(acid-PEG3)-N-bis(PEG3-azide) on C-terminal dK of chain 1, joins two chain 2 copies via PYA triazoles
As for B3, in test [1], the “EC50 (nM), PC3 co-culture” value was determined as 0.19 nM and the “Emax (fold induction over background), PC3” value came out at 47.4 fold over background.

B4: BCY12484 (peptide)
peptide 1: CPXDCMXDWSTPXWC
peptide 2: CXEEXPYCFADPYXC
modifications: not fully specified; BCY12143: Ac-(SEQ ID NO: 64); TATA; linker at dLys(PYA)4; BCY8116: SEQ ID NO: 1; TATA; linker at N-terminus
For the molecule B4, in test [2], the “Fold improvement in EC50 over BCY10000 on same plate, NCI-H292” value (“Fold improvement in EC50 over BCY10000” below) amounted to 5.46 fold and the “Fold improvement in Emax over BCY10000 on same plate, NCI-H292” value (“Fold improvement in Emax over BCY10000” below) amounted to 1.86 fold.

B5: BCY12485 (peptide)
peptide 1: CPXDCMXDWSTPXWC
peptide 2: CXPEXPYCFADPYXC
modifications: not fully specified; BCY12149: Ac-(SEQ ID NO: 63); TATA; linker at dLys(PYA)4; BCY8116: SEQ ID NO: 1; TATA; linker at N-terminus
Consider B5, for which, in test [2], the “Fold improvement in EC50 over BCY10000” value is 3.82 fold and the “Fold improvement in Emax over BCY10000” value was 2.18 fold.

B6: BCY13282 (peptide)
peptide 1: ADC[Hyp]LVNPLCLEP[dD]WTC
peptide 2: Ac-C[tBuAla]PE[dK](Pent4ynoyl)PYCFADPY[Nle]CA
modifications: linker I:3-I:10-I:17, II:1-II:8-II:15 via TATA (inferred); not fully specified (N-terminus, bridges); also: 1:2 complex: two BCY8928 chains on the linker
With B6, in test [1], the “EC50 (nM), PC3 co-culture” value came to 0.22 nM and the “Emax (fold induction over background), PC3” value stood at 40 fold over background.

B7: BCY11385 (peptide)
peptide 1: CPXDCMXDWSTPXWC
peptide 2: CXPEAPYCFADPYXCX
modifications: not fully specified; BCY11014: Ac-(SEQ ID NO: 6)-Dap(PYA); TATA; linker at C-term Dap(PYA); BCY8116: SEQ ID NO: 1; TATA; linker at N-terminus
For B7, in test [2], the “Fold improvement in EC50 over BCY10000” value is 9.35 fold and the “Fold improvement in Emax over BCY10000” value amounted to 1.28 fold.

B8: BCY12978 (peptide)
peptide 1: A[hArg]EC[Hyp]LVNPLCLHP[dE]W[hArg]C
peptide 2: Ac-C[tBuAla]PE[dK](Pent4ynoyl)PYCFADPY[Nle]CA
modifications: linker I:4-I:11-I:18, II:1-II:8-II:15 via TATA (inferred); not fully specified (bridges); also: chain 1 N-terminus and chain 2 dLys(PYA) joined through N-(acid-PEG3)-N-bis(PEG3-azide) linker
As to B8, in test [1], the “EC50 (nM), PC3 co-culture” value amounted to 0.05 nM and the “Emax (fold induction over background), PC3” value amounted to 78.1 fold over background.

B9: BCY13343 (peptide)
peptide 1: C[Hyp]LVNPLCL[Dip]PDWTC
peptide 2: [Mpa][tBuAla]PE[dK(PYA)]PYCFADPY[Nle]C
modifications: linker I:1-I:8-I:15, II:1-II:8-II:15 via TATA; not fully specified (some residues); reading uncertain; also: 1:2 complex: two copies of chain 2 (BCY12353) on the branched linker, linker at chain B 5 to a chain's N-terminus via N-(acid-PEG3)-N-bis(PEG3-azide)
For the molecule B9, in test [1], the “EC50 (nM), PC3 co-culture” value was 0.11 nM and the “Emax (fold induction over background), PC3” value amounted to 44 fold over background.

B10: BCY13280 (peptide)
peptide 1: [dA]EDC[Hyp]LVNPLCLEP[dD]WTC
peptide 2: Ac-C[tBuAla]PE[dK](Pent4ynoyl)PYCFADPY[Nle]CA
modifications: linker I:4-I:11-I:18, II:1-II:8-II:15 via TATA (inferred); not fully specified (N-terminus, bridges); also: 1:2 complex: two copies of chain 2 (BCY8928) on the branched linker
On to B10, for which, in test [1], the “EC50 (nM), PC3 co-culture” value was 0.19 nM and the “Emax (fold induction over background), PC3” value was found to be 38.1 fold over background.

B11: BCY13049 (peptide)
peptide 1: C[Hyp]LVNPLCLEP[dD]WTC[dA]
peptide 2: Ac-C[tBuAla]PE[dK](Pent4ynoyl)PYCFADPY[Nle]CA
modifications: linker I:1-I:8-I:15, II:1-II:8-II:15 via TATA (inferred); not fully specified (N-terminus); also: linker joins chain 1 to two chain 2 copies via PYA triazoles
For B11, in test [1], the “EC50 (nM), PC3 co-culture” value worked out at 0.3 nM and the “Emax (fold induction over background), PC3” value was found to be 46 fold over background.

B12: BCY12486 (peptide)
peptide 1: CPXDCMXDWSTPXWC
peptide 2: CXPEXPYCFANPYXC
modifications: not fully specified; BCY12147: Ac-(SEQ ID NO: 65); TATA; linker at dLys(PYA)4; BCY8116: SEQ ID NO: 1; TATA; linker at N-terminus
Take B12: in test [2], the “Fold improvement in EC50 over BCY10000” value came to 0.25 fold and the “Fold improvement in Emax over BCY10000” value stood at 1.73 fold.

B13: BCY13053 (peptide)
peptide 1: C[Hyp][Cba]VNPLCL[Dip]P[dD]WTC[dA]
peptide 2: Ac-C[tBuAla]PE[dK](Pent4ynoyl)PYCFADPY[Nle]CA
modifications: linker I:1-I:8-I:15 via TATA; linker II:1-II:8-II:15 via TATA (inferred); not fully specified (N-terminus, bridges); also: 1:2 complex: two copies of chain 2 (BCY8928) on the branched linker
Turning to B13, in test [1], the “EC50 (nM), PC3 co-culture” value came to 0.1 nM and the “Emax (fold induction over background), PC3” value was determined as 40.3 fold over background.

B14: BCY13281 (peptide)
peptide 1: AADCXLVNPLCLEPDWTC
peptide 2: CXPEXPYCFADPYXCA
modifications: not fully specified; BCY8928: Ac-(SEQ ID NO: 11)-A; TATA; linker at dLys(PYA)4; BCY13127: [dA]-[dA]-D-(SEQ ID NO: 35); TATA; linker at N-terminus
Turning to B14, in test [1], the “EC50 (nM), PC3 co-culture” value was determined as 0.17 nM and the “Emax (fold induction over background), PC3” value turned out to be 35.6 fold over background.

B15: BCY12586 (peptide)
peptide 1: CPXDCMXDWSTPXWC
peptide 2: CXPEXPYCFADPYXX
modifications: not fully specified; BCY12352: Ac-(SEQ ID NO: 69), [Cysam] third reactive group; TATA; linker at dLys(PYA)4; BCY8116: SEQ ID NO: 1; TATA; linker at N-terminus
Consider B15, for which, in test [2], the “Fold improvement in EC50 over BCY10000” value turned out to be 1.9 fold and the “Fold improvement in Emax over BCY10000” value came to 3.79 fold.

B16: BCY13273 (peptide)
peptide 1: C[Hyp]LVNPLCL[1Nal]PDWTC
peptide 2: Ac-C[tBuAla]PE[dK](Pent4ynoyl)PYCFADPY[Nle]CA
modifications: linker I:1-I:8-I:15 via TATA; linker II:1-II:8-II:15 via TATA (inferred); not fully specified (some residues, N-terminus); also: linker joins chain 1 to two chain 2 copies via PYA triazoles
For B16, in test [1], the “EC50 (nM), PC3 co-culture” value was 0.13 nM and the “Emax (fold induction over background), PC3” value turned out to be 51.3 fold over background.
